Biological target: T1, Escherichia coli lipoyl synthase, hexahistidine-tagged (Escherichia coli, UniProt P60716 1-321)
T1 sequence (looked up): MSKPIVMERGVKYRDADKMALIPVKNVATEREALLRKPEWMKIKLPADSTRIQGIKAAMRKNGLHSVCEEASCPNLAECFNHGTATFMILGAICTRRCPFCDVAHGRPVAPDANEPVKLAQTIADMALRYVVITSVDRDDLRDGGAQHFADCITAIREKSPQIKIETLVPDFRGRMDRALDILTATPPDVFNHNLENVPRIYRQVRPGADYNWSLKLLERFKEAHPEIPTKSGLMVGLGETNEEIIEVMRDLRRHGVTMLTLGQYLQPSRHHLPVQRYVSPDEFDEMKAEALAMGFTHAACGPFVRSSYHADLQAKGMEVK
Test: co-elution on anion-exchange chromatography

B1: [8,8,8-2H3]-octanoyl-H protein of Escherichia coli (natural protein, UniProt P0A6T9 1-129, looked up)
chain: MSNVPAELKYSKEHEWLRKEADGTYTVGITEHAQELLGDMVFVDLPEVGATVSAGDDCAVAESVKAASDIYAPVSGEIVAVNDALSDSPELVNSEPYAGGWIFKIKASDESELESLLDATAYEALLEDE
modifications: N6-([8,8,8-2H3]-octanoyl)-lysine (position not given)
**Q.** Does B1 bind?
**A.** Result: binds

B2: octanoyl-H protein of Escherichia coli (unlabeled) (natural protein, UniProt P0A6T9 1-129, looked up)
chain: B1 chain
modifications: N6-octanoyl-lysine (position not given)
**Q.** Does B2 bind?
**A.** Result: binds

Reference: PMC4216189 (Biochemistry, 2014)
